Assay results published in US20090202980A1 (CROSSBETA BIOSCIENCES B V, published 2009).
Values joined by “and” are separate entries in the source; they are usually repeats but may differ in a detail not shown here. Identical values can stand only once.

B1: fibrin peptide 85 (FP13), human fibrin α-chain fragment α148-160 (peptide)
peptide: KRLEVDIDIKIRS
notes: also called fibrin fragment α147-159 FP13
B2: recombinant human β2-glycoprotein I (expressed in insect cells) (other, UniProt P02749 20-345, looked up)
chain: GRTCPKPDDLPFSTVVPLKTFYEPGEEITYSCKPGYVSRGGMRKFICPLTGLWPINTLKCTPRVCPFAGILENGAVRYTTFEYPNTISFSCNTGFYLNGADSAKCTEEGKWSPELPVCAPIICPPPSIPTFATLRVYKPSAGNNSLYRDTAVFECLPQHAMFGNDTITCTTHGNWTKLPECREVKCPFPSRPDNGFVNYPAKPTLYYKDKATFGCHDGYSLDGPEEIECTKLGNWSAMPSCKASCKVPVKKATVVYQGERVKIQEKFKNGMLHGDKVSFFCKNKEKKCSYTEDAQCIDGTIEVPKCFKEHSSLAFWKTDASDVKPC
notes: also called recombinant β2gpi; rβ2gpi
B3: amyloid fragment of transthyretin (TTR11) (peptide)
peptide: YTIAALLSPYS
B4: tPA-F-EGF-GST (finger and EGF domains of human tPA with C-terminal GST tag) (other, UniProt P00750 36-122, looked up)
chain: SYQVICRDEKTQMIYQQHQSWLRPVLRSNRVEYCWCNSGRAQCHSVPVKSCSEPRCFNGGTCQQALYFSDFVCQCPEGFAGKCCEID
notes: domain: F-EGF; also called F-EGF-tPA; not shown: vector residues and thrombin cleavage site; Schistosoma japonicum glutathion-S-transferase (GST) tag
B5: tPA K1-GST (kringle 1 domain of human tPA with C-terminal GST tag) (other, UniProt P00750 123-210, looked up)
chain: TRATCYEDQGISYRGTWSTAESGAECTNWNSSALAQKPYSGRRPDAIRLGLGNHNYCRNPDRDSKPWCYVFKAGKYSSEFCSTPACSE
notes: domain: K1; not shown: vector residues and thrombin cleavage site; Schistosoma japonicum glutathion-S-transferase (GST) tag
B6: tPA-F-GST (finger domain of human tPA with C-terminal GST tag) (other, UniProt P00750 36-85, looked up)
chain: SYQVICRDEKTQMIYQQHQSWLRPVLRSNRVEYCWCNSGRAQCHSVPVKS
notes: range 1-50; Expressed in 293T or BHK cells; Residues 1-50 count on mature tPA, not on the SwissProt precursor; also called tPA-F domain; F-tPA; not shown: (G)RP vector residues and thrombin cleavage site between domain and GST; Schistosoma japonicum glutathion-S-transferase (GST) tag
B7: human IAPP amyloid core fragment (ΔhIAPP) (peptide)
peptide: SNNFGAILSS
notes: also called hΔIAPP; human amylin fragment
B8: plasmin (activated plasminogen) (enzyme, UniProt P00747 97-810, looked up)
chain: KVYLSECKTGNGKNYRGTMSKTKNGITCQKWSSTSPHRPRFSPATHPSEGLEENYCRNPDNDPQGPWCYTTDPEKRYDYCDILECEEECMHCSGENYDGKISKTMSGLECQAWDSQSPHAHGYIPSKFPNKNLKKNYCRNPDRELRPWCFTTDPNKRWELCDIPRCTTPPPSSGPTYQCLKGTGENYRGNVAVTVSGHTCQHWSAQTPHTHNRTPENFPCKNLDENYCRNPDGKRAPWCHTTNSQVRWEYCKIPSCDSSPVSTEQLAPTAPPELTPVVQDCYHGDGQSYRGTSSTTTTGKKCQSWSSMTPHRHQKTPENYPNAGLTMNYCRNPDADKGPWCFTTDPSVRWEYCNLKKCSGTEASVVAPPPVVLLPDVETPSEEDCMFGNGKGYRGKRATTVTGTPCQDWAAQEPHRHSIFTPETNPRAGLEKNYCRNPDGDVGGPWCYTTNPRKLYDYCDVPQCAAPSFDCGKPQVEPKKCPGRVVGGCVAHPHSWPWQVSLRTRFGMHFCGGTLISPEWVLTAAHCLEKSPRPSSYKVILGAHQEVNLEPHVQEIEVSRLFLEPTRKDIALLKLSSPAVITDKVIPACLPSPNYVVADRTECFITGWGETQGTFGAGLLKEAQLPVIENKVCNRYEFLNGRVQSTELCAGHLAGGTDSCQGDSGGPLVCFEKDKYILQGVTSWGLGCARPNKPGVYVRVSRFVTWIEGVMRNN
B9: laminin α1-chain(2097-2108) amyloid core peptide (LAM12) (peptide)
peptide: AASIKVAVSADR
B10: human factor XII (Hageman factor) (enzyme, UniProt P00748 20-615, looked up)
chain: IPPWEAPKEHKYKAEEHTVVLTVTGEPCHFPFQYHRQLYHKCTHKGRPGPQPWCATTPNFDQDQRWGYCLEPKKVKDHCSKHSPCQKGGTCVNMPSGPHCLCPQHLTGNHCQKEKCFEPQLLRFFHKNEIWYRTEQAAVARCQCKGPDAHCQRLASQACRTNPCLHGGRCLEVEGHRLCHCPVGYTGAFCDVDTKASCYDGRGLSYRGLARTTLSGAPCQPWASEATYRNVTAEQARNWGLGGHAFCRNPDNDIRPWCFVLNRDRLSWEYCDLAQCQTPTQAAPPTPVSPRLHVPLMPAQPAPPKPQPTTRTPPQSQTPGALPAKREQPPSLTRNGPLSCGQRLRKSLSSMTRVVGGLVALRGAHPYIAALYWGHSFCAGSLIAPCWVLTAAHCLQDRPAPEDLTVVLGQERRNHSCEPCQTLAVRSYRLHEAFSPVSYQHDLALLRLQEDADGSCALLSPYVQPVCLPSGAARPSETTLCQVAGWGHQFEGAEEYASFLQEAQVPFLSLERCSAPDVHGSSILPGMLCAGFLEGGTDACQGDSGGPLVCEDQAAERRLTLQGIISWGSGCGDRNKPGVYTDVAYYLAWIREHTVS
notes: also called FXII; fXII
B11: recombinant tissue-type plasminogen activator (tPA) (enzyme, human, UniProt P00750 36-562, looked up)
chain: SYQVICRDEKTQMIYQQHQSWLRPVLRSNRVEYCWCNSGRAQCHSVPVKSCSEPRCFNGGTCQQALYFSDFVCQCPEGFAGKCCEIDTRATCYEDQGISYRGTWSTAESGAECTNWNSSALAQKPYSGRRPDAIRLGLGNHNYCRNPDRDSKPWCYVFKAGKYSSEFCSTPACSEGNSDCYFGNGSAYRGTHSLTESGASCLPWNSMILIGKVYTAQNPSAQALGLGKHNYCRNPDGDAKPWCHVLKNRRLTWEYCDVPSCSTCGLRQYSQPQFRIKGGLFADIASHPWQAAIFAKHRRSPGERFLCGGILISSCWILSAAHCFQERFPPHHLTVILGRTYRVVPGEEEQKFEVEKYIVHKEFDDDTYDNDIALLQLKSDSSRCAQESSVVRTVCLPPADLQLPDWTECELSGYGKHEALSPFYSERLKEAHVRLYPSSRCTSQHLLNRTVTDNMLCAGDTRSGGPQANLHDACQGDSGGPLVCLNDGRMTLVGIISWGLGCGQKDVPGVYTKVTNYLDWIRDNMRP
notes: Commercial full-length recombinant tPA; also called Alteplase; Actilyse

Legend:
[1] = biological target: B11; experiment: ELISA, 25 µg/ml peptide immobilized on Exiqon plates
[2] = biological target: B10; experiment: ELISA, coated ligand, FXII concentration series, 10 mM εACA
Excerpt: (§1) Wells were coated in triplicate. […] Ten μg of the peptides that contain cross-β structure, as well as the negative control peptide MΔIAPP and phosphate-buffered saline (PBS), were spotted in duplicate onto methanol-activated nitrocellulose.

[3] = biological target: B4; experiment: ELISA, 25 µg/ml peptide immobilized, excess εACA, anti-GST detection
[4] = biological target: B11; experiment: ELISA, tPA immobilized, β2gpi concentration series, detection with antibody 2B2
[5] = biological target: B10; experiment: ELISA, factor XII immobilized, β2gpi concentration series, detection with antibody 2B2
[6] = biological target: B10; experiment: ELISA, immobilized peptide
[7] = biological target: T1, Fn F4-5-GST (finger domains 4-5 of human fibronectin with C-terminal GST tag) (human; Schistosoma japonicum, UniProt P02751 182-276); experiment: ELISA, immobilized peptide
T1 construct: domain: fibronectin type I domains 4-5; Printed in places as Fn F4-S-GST (a misprint of F4-5); also called Fn F4-S-GST; fibronectin F4-5; not shown: (G)RP vector residues and thrombin cleavage site; Schistosoma japonicum glutathion-S-transferase (GST) tag
T1 sequence (P02751 182-276, tags left off): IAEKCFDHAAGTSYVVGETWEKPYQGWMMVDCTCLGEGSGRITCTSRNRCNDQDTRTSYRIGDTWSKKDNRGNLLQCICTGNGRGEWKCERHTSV

[8] = biological target: B11; experiment: ELISA, immobilized peptide, 10 mM εACA
[9] = biological target: T2, human amyloid-β peptide Aβ(1-40) (human); experiment: ELISA, 25 µg/ml peptide immobilized, excess εACA, anti-GST detection
T2 construct: also called hAβ(1-40); amyloid-β(1-40)
T2 sequence (peptide, as listed by the source): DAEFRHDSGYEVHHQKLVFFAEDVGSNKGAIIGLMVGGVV

[10] = biological target: T2, human amyloid-β peptide Aβ(1-40); experiment: pull-down with Aβ fibrils, Western blot
Description: “Control,” medium before the pull-down, “Aβ,” washed amyloid Aβ pellet, after the pull-down, “Sup,” medium after extraction with Aβ. […] MΔIAPP was coated as non-amyloid negative control (Panel E). […] The same sections were incubated with Congo red (Panels I, K, and M) to locate amyloid deposits. Panels N and O: Pull-down assay with insoluble Aβ fibrils and finger domains. […] “Control,” medium before the pull-down, “Aβ,” washed amyloid Aβ pellet, after the pull-down, “Sup,” medium after extraction with Aβ.
Conditioned medium was used for pull-down assays using Aβ and IAPP fibrils, followed by Western blot analyses.

[11] = biological target: T2, human amyloid-β peptide Aβ(1-40); experiment: ELISA, coated ligand, anti-GST detection
Description: FIG. 13. […] “Control,” medium before the pull-down, “Aβ,” washed amyloid Aβ pellet, after the pull-down, “Sup,” medium after extraction with Aβ. […] MΔIAPP was coated as non-amyloid negative control (Panel E). […] The same sections were incubated with Congo red (Panels I, K, and M) to locate amyloid deposits. Panels N and O: Pull-down assay with insoluble Aβ fibrils and finger domains. […] “Control,” medium before the pull-down, “Aβ,” washed amyloid Aβ pellet, after the pull-down, “Sup,” medium after extraction with Aβ.

[12] = biological target: B10; experiment: dot blot, 10 µg peptide spotted, 2 nM FXII
Excerpt: Ten μg of the peptides that contain cross-β structure, as well as the negative control peptide mΔIAPP and phosphate-buffered saline (PBS), were spotted in duplicate.

[13] = biological target: T2, human amyloid-β peptide Aβ(1-40); experiment: ELISA, Aβ coated on plate, plasmin overlaid
[14] = biological target: T2, human amyloid-β peptide Aβ(1-40); experiment: ELISA, coated ligand, FXII concentration series, 10 mM εACA
Excerpt: as §1

[15] = biological target: T2, human amyloid-β peptide Aβ(1-40); experiment: ELISA on Exiqon plates
[16] = biological target: T2, human amyloid-β peptide Aβ(1-40); experiment: ELISA, Aβ coated on plate, tPA overlaid
[17] = biological target: T2, human amyloid-β peptide Aβ(1-40); experiment: ELISA, 25 µg/ml peptide immobilized on Exiqon plates
[18] = biological target: T2, human amyloid-β peptide Aβ(1-40); experiment: kD of tPA binding to coated hAβ(1-40), quoted for the competitive ELISA
[19] = biological target: T3, advanced glycation end product-modified bovine serum albumin, glycated with glucose-6-phosphate (albumin-g6p) (bovine, UniProt P02769 25-607, glycated with glucose-6-phosphate (advanced glycation end products; 59 lysine and 23 arginine residues and the N-terminus are potential glycation sites)); experiment: kD of tPA binding to coated albumin-AGE, quoted for the competitive ELISA
T3 construct: adopts cross-β structure; also called albumin-AGE; glycated albumin
T3 sequence (P02769 25-607 limits assumed): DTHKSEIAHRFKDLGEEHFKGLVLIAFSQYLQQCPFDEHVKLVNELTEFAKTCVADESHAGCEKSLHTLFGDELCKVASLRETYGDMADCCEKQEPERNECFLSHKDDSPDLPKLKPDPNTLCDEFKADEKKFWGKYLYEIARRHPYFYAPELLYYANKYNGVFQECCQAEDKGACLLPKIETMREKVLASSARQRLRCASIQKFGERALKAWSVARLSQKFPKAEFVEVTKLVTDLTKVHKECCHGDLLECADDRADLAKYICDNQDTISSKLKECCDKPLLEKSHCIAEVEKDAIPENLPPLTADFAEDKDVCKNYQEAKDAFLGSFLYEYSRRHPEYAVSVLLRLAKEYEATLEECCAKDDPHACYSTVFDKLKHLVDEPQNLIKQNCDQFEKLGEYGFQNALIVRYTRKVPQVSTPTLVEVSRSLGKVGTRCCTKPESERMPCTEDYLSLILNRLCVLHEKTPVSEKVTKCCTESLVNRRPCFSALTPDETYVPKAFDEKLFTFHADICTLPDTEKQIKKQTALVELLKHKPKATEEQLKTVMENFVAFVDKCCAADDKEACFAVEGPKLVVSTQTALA

Binder: B1
Kd [1]: 5 nM
Kd [2]: ~11 nM
Kd [3]: 2 nM

Binder: B2
Kd [4]: 2.3 µg/mL and 51 nM
Kd [5]: 0.9 µg/mL and 20 nM

Binder: B3
binding result [6]: binds
binding result [7]: binds
binding result [8]: binds

Binder: B4
Kd [9]: 2 nM

Binder: B5
binding result [10]: no binding

Binder: B6
binding result [11]: binds

Binder: B7
binding result [12]: binds

Binder: B8
Kd [13]: 47 nM

Binder: B9
binding result [6]: binds
binding result [8]: binds

Binder: B10
Kd [14]: ~2 nM

Binder: B11
Kd [15]: 46 nM
Kd [16]: ~7 nM
Kd [17]: 2 nM
Kd [18]: 50 nM
Kd [19]: 1 nM
